Experimental data: US20190300610A1 (published 2019)
Each block holds one binder with its values, some of them ahead of it.

Experiments:
[1] = target: T1, cynomolgus macaque VISTA polypeptide (ELISA coat) (cynomolgus macaque, UniProt A0A7N9IB00 33-194); assay: ELISA
T1 chain: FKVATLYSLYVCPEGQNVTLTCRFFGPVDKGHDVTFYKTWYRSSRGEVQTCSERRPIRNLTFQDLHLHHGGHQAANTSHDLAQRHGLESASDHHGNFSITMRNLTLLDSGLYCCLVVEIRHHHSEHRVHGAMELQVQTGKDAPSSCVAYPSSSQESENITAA

- = assay: BLI; Figure 25B
[2] = target: human VISTA polypeptide (ELISA coat) (UniProt Q9H7M9 33-194); assay: ELISA

EC50 [1]: 0.0052 nM
B1: VSTB112 IgG1 (antibody, V domains shown)
VH: QVQLVQSGAEVKKPGSSVKVSCKASGGTFSSYAISWVRQAPGQGLEWMGGIIPIFGTANYAQKFQGRVTITADESTSTAYMELSSLRSEDTAVYYCARSSYGWSYEFDYWGQGTLVTVSS
VL: DIQMTQSPSSLSASVGDRVTITCRASQSIDTRLNWYQQKPGKAPKLLIYSASSLQSGVPSRFSGSGSGTDFTLTISSLQPEDFATYYCQQSAYNPITFGQGTKVEIKR

Kd (-): 455 nM
B2: mFcγRIII (receptor)
chain: ALPKAVVKLDPPWIQVLKEDMVTLMCEGTHNPGNSSTQWFHNGRSIRSQVQASYTFKATVNDSGEYRCQMEQTRLSDPVDLGVISDWLLLQTPQRVFLEGETITLRCHSWRNKLLNRISFFHNEKSVRYHHYKSNFSIPKANHSHSGDYYCKGSLGSTQHQSKPVTITVQDPATTSSISLVWYHT

EC50 [2]: 0.246 nM
B3: anti-VISTA clone 4M2-C12 IgG1 (antibody)
heavy: not shown
light: DIVITQTPAILSTSPGEKVTMTCRASSSVGYIHWYQQKPGSSPKPWIYATSNLASGVPARFSGSGSGTSNSLTITRVEAEDAATYYCQQWSSYPPITFGGGTKLEVKRTVAAPSVFIFPPSDEQLKSGTASVVCLLNNFYPREAKVQWKVDNALQSGNSQESVTEQDSKDSTYSLSSTLTLSKADYEKHKVYACEVTHQGLSSPVTKSFNRGEC
